± gives the uncertainty stated by the source.
B1: PDZ and LIM domain protein 2, residues 284 to 339; numbered along this chain, Q96JY6 (parent)
chain: HTCEKCSTSIANQAVRIQEGRYRHPGCYTCADCGLNLKMRGHFWVGDELYCEKHAR

Variants of: B1
Assay: abundance fitness (aPCA) (normalised: wild type 0, dead -1); higher = more abundant; growth selection in yeast, the domain comes from the species named
Settings: Homo sapiens
With HTCEKCSTSIANQAVRIQEGRYRHPGCYTCADCGLNLKMRGHFWVGDELYCEKHER [A55E] the abundance fitness was -0.309 ± 0.16. HTCEKCSTSIANQAVRIQEGRYRHPGCYTCADCGLNLKMRGHFWVGDELYCEKHDR [A55D] showed an abundance fitness of -0.097 ± 0.11. HTCEKCSTSIANQAVRIQEGRYRHPGCYTCADCGLNLKMRGHFWVGDELYCEKHCR [A55C] showed an abundance fitness of -0.108 ± 0.1. HTCEKCSTSIANQAVRIQEGRYRHPGCYTCADCGLNLKMRGHFWVGDELYCEKHFR [A55F] showed an abundance fitness of 0.12 ± 0.081. HTCEKCSTSIANQAVRIQEGRYRHPGCYTCADCGLNLKMRGHFWVGDELYCNKHAR [E52N] gave an abundance fitness of 0.18 ± 0.13. HTCEKCSTSIANQAVRIQEGRYRHPGCYTCADCGLNLKMRGHFWVGDELYCPKHAR [E52P] showed an abundance fitness of 0.183 ± 0.12. In the case of HTCEKCSTSIANQAVRIQEGRYRHPGCYTCADCGLNLKMRGHFWVGDELYCSKHAR [E52S], the abundance fitness is reported as -0.352 ± 0.094. With HTCEKCSTSIANQAVRIQEGRYRHPGCYTCADCGLNLKMRGHFWVGDELYCVKHAR [E52V] the abundance fitness was -0.605 ± 0.15. HTCEKCSTSIANQAVRIQEGRYRHPGCYTCADCGLNLKMRGHFWVGDELYCLKHAR [E52L] gave an abundance fitness of -0.156 ± 0.098. HTCEKCSTSIANQAVRIQEGRYRHPGCYTCADCGLNLKMRGHFWVGDELYCQKHAR [E52Q] showed an abundance fitness of -0.102 ± 0.22. HTCEKCSTSIANQAVRIQEGRYRHPGCYTCADCGLNLKMRGHFWVGDELYCMKHAR [E52M] gave an abundance fitness of -0.152 ± 0.08. Variant HTCEKCSTSIANQAVRIQEGRYRHPGCYTCADCGLNLKMRGHFWVGDELYCWKHAR [E52W] has an abundance fitness of -0.108 ± 0.11. Work on HTCEKCSTSIANQAVRIQEGRYRHPGCYTCADCGLNLKMRGHFWVGDELYCRKHAR [E52R] yielded an abundance fitness of -0.256 ± 0.064. In the case of HTCEKCSTSIANQAVRIQEGRYRHPGCYTCADCGLNLKMRGHFWVGDELYCEKRAR [H54R], the abundance fitness is reported as -0.655 ± 0.087. HTCEKCSTSIANQAVRIQEGRYRHPGCYTCADCGLNLKMRGHFWVGDELYCEKIAR [H54I] showed an abundance fitness of -0.755 ± 0.093. In the case of HTCEKCSTSIANQAVRIQEGRYRHPGCYTCADCGLNLKMRGHFWVGDELYCEKGAR [H54G], the abundance fitness is reported as -0.317 ± 0.12. Variant HTCEKCSTSIANQAVRIQEGRYRHPGCYTCADCGLNLKMRGHFWVGDELYCEKWAR [H54W] has an abundance fitness of -0.856 ± 0.081. For HTCEKCSTSIANQAVRIQEGRYRHPGCYTCADCGLNLKMRGHFWVGDELYCEKMAR [H54M], the abundance fitness was -0.901 ± 0.25. With HTCEKCSTSIANQAVRIQEGRYRHPGCYTCADCGLNLKMRGHFWVGDELYCEKNAR [H54N] the abundance fitness was -0.465 ± 0.33. HTCEKCSTSIANQAVRIQEGRYRHPGCYTCADCGLNLKMRGHFWVGDELYCEKSAR [H54S] showed an abundance fitness of -0.522 ± 0.097. With HTCEKCSTSIANQAVRIQEGRYRHPGCYTCADCGLNLKMRGHFWVGDELYCEKTAR [H54T] the abundance fitness was -0.7 ± 0.18. Work on HTCEKCSTSIANQAVRIQEGRYRHPGCYTCADCGLNLKMRGHFWVGDELYCEKKAR [H54K] yielded an abundance fitness of -0.7 ± 0.33. Work on HTCEKCSTSIANQAVRIQEGRYRHPGCYTCADCGLNLKMRGHFWVGDELYCEKVAR [H54V] yielded an abundance fitness of -0.612 ± 0.067. In the case of HTCEKCSTSIANQAVRIQEGRYRHPGCYTCADCGLNLKMRGHFWVGDELYCEKAAR [H54A], the abundance fitness is reported as -0.865 ± 0.29. HTCEKCSTSIANQAVRIQEGRYRHPGCYTCADCGLNLKMRGHFWVGDELYCEKQAR [H54Q] gave an abundance fitness of -0.759 ± 0.15. With HTCEKCSTSIANQAVRIQEGRYRHPGCYTCADCGLNLKMRGHFWVGDELYCEKLAR [H54L] the abundance fitness was -0.653 ± 0.091. Variant HTCEKCSTSIANQAVRIQEGRYRHPGCYTCADCGLNLKMRGHFWVGDELYCEKYAR [H54Y] has an abundance fitness of -0.284 ± 0.15. Work on HTCEKCSTSIANQAVRIQEGRYRHPGCYTCADCGLNLKMRGHFWVGDELYCEKDAR [H54D] yielded an abundance fitness of 0.128 ± 0.065. Variant HTCEKCSTSIANQAVRIQEGRYRHPGCYTCADCGLNLKMRGHFWVGDELYCEKCAR [H54C] has an abundance fitness of 0.135 ± 0.084. For HTCEKCSTSIANQAVRIQEGRYRHPGCYTCADCGLNLKMRGHFWVGDELYCEKPAR [H54P], the abundance fitness was -0.771 ± 0.18. Variant HTCEKCSTSIANQAVRIQEGRYRHPGCYTCADCGLNLKMRGHFWVGDELYCEHHAR [K53H] has an abundance fitness of 0.377 ± 0.14. With HTCEKCSTSIANQAVRIQEGRYRHPGCYTCADCGLNLKMRGHFWVGDELYCETHAR [K53T] the abundance fitness was 0.037 ± 0.12. In the case of HTCEKCSTSIANQAVRIQEGRYRHPGCYTCADCGLNLKMRGHFWVGDELYCEVHAR [K53V], the abundance fitness is reported as 0.007 ± 0.085. Variant HTCEKCSTSIANQAVRIQEGRYRHPGCYTCADCGLNLKMRGHFWVGDELYCEIHAR [K53I] has an abundance fitness of -0.275 ± 0.18. Work on HTCEKCSTSIANQAVRIQEGRYRHPGCYTCADCGLNLKMRGHFWVGDELYCENHAR [K53N] yielded an abundance fitness of -0.056 ± 0.094. Variant HTCEKCSTSIANQAVRIQEGRYRHPGCYTCADCGLNLKMRGHFWVGDELYCEGHAR [K53G] has an abundance fitness of -0.158 ± 0.081. Work on HTCEKCSTSIANQAVRIQEGRYRHPGCYTCADCGLNLKMRGHFWVGDELYCEFHAR [K53F] yielded an abundance fitness of -0.089 ± 0.19. HTCEKCSTSIANQAVRIQEGRYRHPGCYTCADCGLNLKMRGHFWVGDELYCELHAR [K53L] showed an abundance fitness of -0.135 ± 0.079. HTCEKCSTSIANQAVRIQEGRYRHPGCYTCADCGLNLKMRGHFWVGDELYCEYHAR [K53Y] showed an abundance fitness of 0.252 ± 0.2. Variant HTCEKCSTSIANQAVRIQEGRYRHPGCYTCADCGLNLKMRGHFWVGDELYCEQHAR [K53Q] has an abundance fitness of 0.028 ± 0.075. For HTCEKCSTSIANQAVRIQEGRYRHPGCYTCADCGLNLKMRGHFWVGDELYCEWHAR [K53W], the abundance fitness was 0.164 ± 0.11. With HTCEKCSTSIANQAVRIQEGRYRHPGCYTCADCGLNLKMRGHFWVGDELYCERHAR [K53R] the abundance fitness was -0.124 ± 0.06. In the case of HTCEKCSTSIANQAVRIQEGRYRHPGCYTCADCGLNLKMRGHFWVGDELYCEEHAR [K53E], the abundance fitness is reported as 0.235 ± 0.094. Variant HTCEKCSTSIANQAVRIQEGRYRHPGCYTCADCGLNLKMRGHFWVGDELYCEAHAR [K53A] has an abundance fitness of -0.198 ± 0.13. For HTCEKCSTSIANQAVRIQEGRYRHPGCYTCADCGLNLKMRGHFWVGDELYCECHAR [K53C], the abundance fitness was -0.377 ± 0.16. For HTCEKCSTSIANQAVRIQEGRYRHPGCYTCADCGLNLKMRGHFWVGDELYCEDHAR [K53D], the abundance fitness was 0.078 ± 0.14. With HTCEKCSTSIANQAVRIQEGRYRHPGCYTCADCGLNLKMRGHFWVGDELYCESHAR [K53S] the abundance fitness was 0.184 ± 0.088.

From the Human Domainome abundance scans (Beltran et al. 2025)
